Results on seven molecules are retold here after patent US20210292423A1 (published 2021).

B1: 18G9-H11 Fab (Fab, V domains shown)
VH: EVQLVETGGSLVQPGKSLKLTCATSGFTFSNAWIQWVRQSPEKQLEWVAQIKAKSNNYATYYAESVKGRFTISRDDSKSSVYLQMNSLKEEDTALYYCTWRHYYSSHTMDAWGQGTLVTVSS
VL: DVVMTQTPVSLSVSLGGQVSISCRSSQSLVHNNGNTYLSWYLQKPGQSPQLLIYKVSNRFSGISDRFSGSGSGTDFTLKISRVAPTDLGVYYCGQGSQYPFTFGAGTKLELK
B2: 12G3-E8 Fab (Fab, V domains shown)
VH: EVRVVETGGSLVQPGKSLKLTCATSGFTFSLAWMHWVRQSPEKKLEWVAQIKDKANNYATYYAESVKGRFTISRDDSKRSVYLQMNRLKEEDTAIYYCRGVYYGFSMTPFDYWGQGVMVTVSS
VL: B1 VL with V3A, L51V, T74A, A84E, T86D, S97T
B3: 20E5-F10 Fab (Fab, V domains shown)
VH: EVQLVETGENLVQPGKSLRLTCATSGFSFSNAWMHWIRQSPEKQLEWVAQIKDKSNNYATYYAESVNGRFTISRDDSKSSIYLHMDNLKEEDSAIYYCRYVHYGVRFFYTMDVWGQGTSVTVSS
VL: B1 VL with G17D, S25P, Q50H, L51P, A84E, T86D, S97T, A105S, L111I
notes: also called 20E5-F10-huFab
B4: 11F9-F8 Fab (Fab, V domains shown)
VH: EVQLVETGGTLVQPGKSLKLTCATSGFTFSNAWMHWVRQSPEKQLEWVAQIKAKSNNYATYYAESVKGRFTISRDDSKTSVYLQLNSLREEDTAIYYCRGTQYGYNPFDYWGQGVMVTVSS
VL: B1 VL with M4L, Y41S, L51V, D65N, A84E, T86D, S97A, Q98H, A105S, L111I
notes: also called 11F9-F8-huFab
B5: 13H2-C2 Fab (Fab, V domains shown)
VH: EEELVETGGSLVQPGKSLKLTCATSGFTFSNAWMHWVRQSPDKQLEWVAQIKAKSNNYATYYAESVKGRFTISRDDSKSSVYLQMNNLKEEDTAIYYCRYVHYGLAPMDAWGQGTSVTVSS
VL: B1 VL with P45A, T77I, A84E, T86D, Y91F, S97T
notes: also called 13H2-C3
B6: 1E6-C9 Fab (Fab, V domains shown)
VH: EVQLVETGGSLVQPGKSLKLTCATSGFTFSYAWMHWVRQSPDKQLQWVAQIKAKSNNYATYYAESVEGRFTISRDDSKSSVYLQMNSLKEEDTAIYYCRGVYYGLLGLDAWGQGTSVTVSS
VL: B1 VL with S14R, Y41F, G71A, A84E, T86D, S97T, Q98H, A105S, L111I
notes: also called 1E6-B8; 1E6-B8/B9-C9-Fab
B7: 10E6-G6 Fab (Fab, V domains shown)
VH: B4 VH with T10G, P14S, F29V, S30T, A59E, T79S, L85M, R89K
VL: DVVMTQSPVSLSVSLGGQVSISCRSSQSLVHNNGYTYLSWYLQKPGQSPQVFIYKVSNRFSGISDRFSGSGSGTDFTLKISRIEPDDLGVYYCGQGTHYPFTFGSGTKLEIK

Residue numbers refer to the chain shown, from its start.

T2 sequence (chain, as listed by the source mutant, chain 1 of 2): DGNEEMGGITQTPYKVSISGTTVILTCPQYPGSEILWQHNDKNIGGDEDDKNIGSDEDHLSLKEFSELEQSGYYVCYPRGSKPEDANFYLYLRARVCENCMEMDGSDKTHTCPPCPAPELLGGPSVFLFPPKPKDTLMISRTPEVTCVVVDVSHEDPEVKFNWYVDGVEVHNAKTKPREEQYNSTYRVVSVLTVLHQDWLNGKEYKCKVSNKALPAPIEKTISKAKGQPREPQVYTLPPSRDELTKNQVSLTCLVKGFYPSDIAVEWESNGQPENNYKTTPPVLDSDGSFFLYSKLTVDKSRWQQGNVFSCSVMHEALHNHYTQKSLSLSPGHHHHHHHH
T2 sequence (P04234 22-105, stated change not applied, chain 2 of 2): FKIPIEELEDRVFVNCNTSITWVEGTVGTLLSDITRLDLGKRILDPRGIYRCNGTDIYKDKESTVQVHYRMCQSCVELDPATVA
T1 sequence (P04234 22-171 limits assumed, stated change not applied): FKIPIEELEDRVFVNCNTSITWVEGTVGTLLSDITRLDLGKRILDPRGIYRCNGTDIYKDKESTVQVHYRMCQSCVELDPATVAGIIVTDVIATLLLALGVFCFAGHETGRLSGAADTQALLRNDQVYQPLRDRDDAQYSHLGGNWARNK

One assay has as its target T1, human CD3δ expressed alone on HEK293F cells (human, UniProt P04234 22-171).
T1 construct: entry includes the signal peptide; also called huCD3δ
Description: flow cytometry, HEK293F transfected with huCD3δ. The protocol: (§1) To analyze binding of antibodies to human CD3ε and human CD3δ expressed on the surface of cells, HEK293F cells were transfected with both constructs either alone or in co-transfection and signals were measured by flow cytometry. For transfection procedure FuGENE HD Transfection Reagent (Promega, #E2311) was used according to manufacturer's protocol.
Cells were incubated on a shaker at 37° C. and 5% CO2. At day one to three after transfection cells were harvested and binding of antibodies was analyzed by flow cytometry.
(§2) Antibodies for staining were seeded at 1 μg in 50 μl per well Stain Buffer with FBS (BD Pharmingen) in 96-well U-bottom suspension culture plates (Greiner bio-one). Harvested transfected cells were resuspended in Stain Buffer with FBS and were added at 50 μl per well to the antibodies. Cells were incubated at 4° C. in the dark for 30 min and were washed twice. 0.5 μg secondary antibody Goat F(ab′)2 Anti-Human IgG-FITC (Beckman Coulter, #732598) or Goat F(ab′)2 Anti-Human kappa-PE (Southern Biotech, #206209), respectively, in combination with 0.5 μg 7-AAD per well was added in 100 μl Stain Buffer with FBS. Cells were incubated at 4° C. in the dark for 15 min and were washed twice. For measurement, cells were resuspended in 200 μl Stain Buffer with FBS. Cells were measured using the MACSQuant (Miltenyi Biotec) or LSRII (BD) flow cytometer, respectively. Further data analyses were performed using the FlowJo software (Tree Star, Inc.).
B1: the binding result was “no binding (tested: <20% of binding of huCD3e + huCD3d)”.

For B2, the binding result is reported as “no binding (tested: <20% of binding of huCD3e + huCD3d)”.

As to B3, the binding result was “no binding (tested: <20% of binding of huCD3e + huCD3d)”.

Turning to B4, the binding result is recorded as “no binding (tested: <20% of binding of huCD3e + huCD3d)”.

Turning to B5, the binding result was “no binding (tested: <20% of binding of huCD3e + huCD3d)”.

Consider B6, for which the binding result is listed as “no binding (tested: <20% of binding of huCD3e + huCD3d)”.

B7: the binding result is listed as “no binding (tested: <20% of binding of huCD3e + huCD3d)”.

The next assay addresses recombinant huCD3ε/γ protein with Fc-tag (PB01225) (human, UniProt P07766 23-126; P09693 23-116). Kind of assay: SPR, CD3-Fc captured, Fab 100 nM. The protocol: (§3) Binding was tested by SPR using a BIAcore3000 instrument run with HBS-EP buffer. Recombinant huCD3 proteins (ε/δ (PB01226), ε/γ (PB01225)) were captured at 10 μl/min via Fc-tag by anti-human Fc capture antibody MAB1302 (Millipore) immobilized on a CM5 sensor chip. Anti-CD3 Fabs were used as analytes at 100 nM with association and dissociation times of 240 sec and 300 sec, respectively at 30 μl/min. After each cycle the surfaces were regenerated by a 2 min pulse of 10 mM glycine buffer pH2.5.
For orientation: SPR reads the build-up and loss of mass on a sensor chip optically.
For the molecule B1, the “RU of Fab binding at 100 nM” value turned out to be 3 RU.

For B2, the “RU of Fab binding at 100 nM” value was 7 RU.

B3: the “RU of Fab binding at 100 nM” value turned out to be 8 RU.

For the molecule B4, the “RU of Fab binding at 100 nM” value amounted to 7 RU.

B5: the “RU of Fab binding at 100 nM” value is 6 RU.

With B6, the “RU of Fab binding at 100 nM” value is 7 RU.

In the case of B7, the “RU of Fab binding at 100 nM” value was determined as 8 RU.

Another assay concerns the target T2, human CD3ε/δ-Fc fusion protein (soluble recombinant CD3ε/δ complex) (human, UniProt P04234 22-105).
T2 construct: also called huCD3ε/δ; huCD3; not shown: hinge, CH2, CH3 of human IgG with tag
Kind of assay: SPR, CD3-Fc captured, Fab 100 nM. The protocol:
as §3
For B1, the “RU of Fab binding at 100 nM” value turned out to be 10 RU.

As for B2, the “RU of Fab binding at 100 nM” value amounted to 10 RU.

For the molecule B3, the “RU of Fab binding at 100 nM” value amounted to 11 RU.

On to B4, for which the “RU of Fab binding at 100 nM” value was determined as 10 RU.

With B5, the “RU of Fab binding at 100 nM” value was found to be 9 RU.

In the case of B6, the “RU of Fab binding at 100 nM” value worked out at 10 RU.

In the case of B7, the “RU of Fab binding at 100 nM” value was found to be 11 RU.

Another assay addresses T3, human CD3 (TCR complex) on primary human T cells or Jurkat cells (human, UniProt P07766 23-207).
T3 construct: on the cells it stands in the whole TCR/CD3 complex; also called Jurkat E6-1 (expressing human TCR)
Description: flow cytometry, primary human T cells. The protocol:
The binding capacity of the CD3-Fabs was determined by flow cytometry. Primary human T cells were used as target cells. Therefore, peripheral blood mononuclear cells (PBMCs) were isolated from 200 ml peripheral blood of healthy donors treated with EDTA by Ficoll density centrifugation. 15 ml Histopaque (Sigma-Aldrich) was preloaded on a 50 ml Leucosep-Tube (Greiner bio-one). Blood was diluted with autoMACS Rinsing Buffer+1% BSA (Miltenyi Biotec) and loaded on the membrane of a total of ten prepared tubes. Tubes were centrifuged without brake for 10 min at 1000 xg. PBMCs were collected and washed with autoMACS Rinsing Buffer+1% BSA three times. Finally, PBMCs were resuspended in autoMACS Running Buffer (Miltenyi Biotec) for isolation of T lymphocytes by autoMACSpro technology using the Pan T Cell isolation Kit (Miltenyi Biotec) according to manufacturer's instructions. Purity of separated T cells was analyzed by MACSQuant flow cytometry using the human 7-Color Immunophenotyping Kit (Miltenyi Biotec). Isolated T cells were resuspended in Stain Buffer with FBS (BD Pharmingen) and 1E5 cells in 100 μl per well were seeded in 96-well U-bottom suspension culture plates (Greiner bio-one). Fab antibodies were diluted 1:3 in serial in PBS (Invitrogen) and 5 μl each were added to the cells at a final maximum concentration of 30000 ng/ml. The assay was incubated for 45 min at 4° C. Cells were washed twice with Stain Buffer with FBS and 1 μg secondary antibody Goat F(ab′)2 Anti-Human kappa-FITC (Beckman Coulter, #732621) per well was added in 100 μl Stain Buffer with FBS per well. The assay was incubated for 20 min at 4° C. and washed twice afterwards. Cells were resuspended in 150 μl Stain Buffer with FBS per well and were measured using the MACSQuant (Miltenyi Biotec) or LSRII (BD) flow cytometer. Further data analyses were performed using the FlowJo software (Tree Star, Inc.). Read out was percentage of cells positive for antibody binding. Cells treated only with the secondary but no primary antibody were used to set the gates. EC50 Curves were calculated by XLfit (Algorithm 205), EC50 values were calculated as inflection point of the slope (data are shown in table 6).
In general terms: A flow cytometer gives signals particle by particle.
For orientation: EC50 means the concentration at which the effect is half-maximal. Turning to B1, it took 1.7 nM to reach a half-maximal effect (EC50).

For the molecule B2, the EC50 worked out at 4.4 nM.

On to B3, for which a half-maximal response (EC50) required 8.2 nM.

For B4, a half-maximal effect (EC50) was put at 11.6 nM.

In turn, B5 displayed an EC50 of 14.3 nM.

B6 yielded an EC50 of 18.7 nM.

In turn, B7 showed an EC50 of 4.7 nM.

In a further assay the target is T2, human CD3ε/δ-Fc fusion protein (soluble …). Kind of assay: SPR Biacore, CD3εδ-Fc captured, Fab analyte. The protocol: Binding affinities of anti-CD3 binding Fabs or CODV-Fabs were measured by surface plasmon resonance (SPR) using a Biacore3000 instrument (GE Healthcare). Assay buffer was HBS-EP (BR-1001-88, GE Healthcare). Capture of CD3ε/δ-Fc fusion proteins was achieved using the human antibody capture kit (GE Healthcare). […] The CD3εδ-Fc fusions proteins were captured at 10 μl/min to approx. 70 RU to yield Rmax values of 30 RU. Binding kinetics with the anti-CD3 Fabs or CODV-Fabs was measured at 30 μl/min for 240 sec. and 600 sec. for association and dissociation phase, respectively. Twofold dilutions of Fabs from 3 to 400 nM in assay buffer were used. All Fab concentrations were run in duplicate together with duplicate buffer blanks for double referencing. Regeneration of the capture surface was performed with a 1 min injection of 3M MgCl2 solution at 30 μl/min. For data analysis the BIAevaluation software v.4.1 (GE Healthcare) was used. Data were fit globally using a 1:1 Langmuir model with mass transfer.
A word on the Kd: it is the free concentration of one partner at which half of the binding sites on the other are occupied at equilibrium, for simple one-to-one binding. By koff is commonly meant the first-order rate constant of dissociation. The term kon denotes the rate constant with which the complex forms. On to B1, for which the equilibrium dissociation constant (Kd) amounted to 4.4 nM, the koff amounted to 0.0011 s⁻¹ and the kon came to 250000 M⁻¹ s⁻¹.

Consider B2, for which the Kd was 9.3 nM, the koff is 0.0011 s⁻¹ and the kon is 110000 M⁻¹ s⁻¹.

As for B3, the dissociation constant Kd is 4.3 nM, the dissociation rate constant (koff) was determined as 0.00043 s⁻¹ and the kon came out at 99000 M⁻¹ s⁻¹.

For B4, the Kd stood at 5.2 nM, the koff stood at 0.0004 s⁻¹ and the on-rate (kon) came out at 77000 M⁻¹ s⁻¹.

Take B5: the Kd was 29 nM, the koff was 0.0049 s⁻¹ and the kon is 170000 M⁻¹ s⁻¹.

Turning to B6, the Kd was 41 nM, the koff amounted to 0.0039 s⁻¹ and the on-rate constant (kon) stood at 93000 M⁻¹ s⁻¹.

As to B7, the Kd is 14 nM, the koff came to 0.002 s⁻¹ and the kon came out at 140000 M⁻¹ s⁻¹.

In a further assay the target is T4, human CD3ε and CD3δ co-expressed on HEK293F cells (human, UniProt P07766 23-207; P04234 22-171).
T4 construct: also called huCD3ε/δ (transfected cells); huCD3e + huCD3d
Description: flow cytometry, transfected HEK293F. The protocol:
as §1, §2
Regarding B1, the “% antibody positive transfected cells” value was 97%.

Regarding B2, the “% antibody positive transfected cells” value stood at 96.7%.

Take B3: the “% antibody positive transfected cells” value was determined as 95.3%.

With B4, the “% antibody positive transfected cells” value was found to be 96%.

Regarding B5, the “% antibody positive transfected cells” value was found to be 93%.

Take B6: the “% antibody positive transfected cells” value was determined as 91.7%.

Regarding B7, the “% antibody positive transfected cells” value was 93.3%.

Another assay has as its target T5, human CD3ε expressed alone on HEK293F cells (human, UniProt P07766 23-207).
T5 construct: also called huCD3ε
Description: flow cytometry, transfected HEK293F. The protocol: as §1, §2
As for B1, the “% antibody positive transfected cells” value turned out to be 95%.

As for B2, the “% antibody positive transfected cells” value was found to be 96.3%.

Take B3: the “% antibody positive transfected cells” value was 96.7%.

With B4, the “% antibody positive transfected cells” value amounted to 97%.

Turning to B5, the “% antibody positive transfected cells” value came to 93.3%.

For B6, the “% antibody positive transfected cells” value is 87.7%.

As to B7, the “% antibody positive transfected cells” value was 96.3%.
